Substitutions are numbered along the chain they refer to. Numbers in names are those of the source.
B1: long-acting GDF15 fusion protein ΔN2, S97Q (Fc fusion)
chain 1: APALAGGPSVFLFPPKPKDTLMISRTPEVTCVVVDVSHEDPEVKFNWYVDGVEVHNAKTKPREEQYNSTYRVVSVLTVLHQDWLNGKEYKCKVSNKALPAPIEKTISKAKGQPREPQVYTLPPSREEMTKNQVSLWCLVKGFYPSDIAVEWESNGQPENNYKTTPPVLDSDGSFFLYSKLTVDKSRWQQGNVFSCSVMHEALHNHYTQKSLSLSPGKGGGGSGGGGSGGGGSGGGGSGGGGSNGDHCPLGPGRCCRLHTVRASLEDLGWADWVLSPREVQVTMCIGACPSQFRAANMHAQIKTSLHRLKPDTVPAPCCVPASYNPMVLIQKTDTGVQLQTYDDLLAKDCHCI
chain 2: not shown
B2: long-acting GDF15 fusion protein ΔN2, Y101F (Fc fusion)
chain 1: B1 chain 1 with Q337S, Y341F
chain 2: not shown
B3: long-acting GDF15 fusion protein ΔN2, W32F (Fc fusion)
chain 1: B1 chain 1 with W272F, Q337S
chain 2: not shown
B4: long-acting GDF15 fusion protein ΔN2, Y101Q (Fc fusion)
chain 1: B1 chain 1 with Q337S, Y341Q
chain 2: not shown
B5: long-acting GDF15 fusion protein (dimer) FM11-1 + Fc_hole (ΔN3, G4N, D5S, H6T, S64R; linker GS(G4S)3) (Fc fusion)
chain 1: APEAAGGPSVFLFPPKPKDTLMISRTPEVTCVVVDVSHEDPEVKFNWYVDGVEVHNAKTKPREEQYASTYRVVSVLTVLHQDWLNGKEYKCKVSNKALPAPIEKTISKAKGQPREPQVYTLPPSREEMTKNQVSLWCLVKGFYPSDIAVEWESNGQPENNYKTTPPVLDSDGSFFLYSKLTVDKSRWQQGNVFSCSVMHEALHNHYTQKSLSLSPGKGSGGGGSGGGGSGGGGSNSTCPLGPGRCCRLHTVRASLEDLGWADWVLSPREVQVTMCIGACPSQFRAANMHAQIKTRLHRLKPDTVPAPCCVPASYNPMVLIQKTDTGVSLQTYDDLLAKDCHCI
chain 2: APEAAGGPSVFLFPPKPKDTLMISRTPEVTCVVVDVSHEDPEVKFNWYVDGVEVHNAKTKPREEQYASTYRVVSVLTVLHQDWLNGKEYKCKVSNKALPAPIEKTISKAKGQPREPQVYTLPPSREEMTKNQVSLSCAVKGFYPSDIAVEWESNGQPENNYKTTPPVLDSDGSFFLVSKLTVDKSRWQQGNVFSCSVMHEALHNHYTQKSLSLSPGK
B6: long-acting GDF15 fusion protein (dimer) FM11-2 + Fc_hole (ΔN3, G4N, D5S, H6T, S64R; linker GS(G4S)5) (Fc fusion)
chain 1: APEAAGGPSVFLFPPKPKDTLMISRTPEVTCVVVDVSHEDPEVKFNWYVDGVEVHNAKTKPREEQYASTYRVVSVLTVLHQDWLNGKEYKCKVSNKALPAPIEKTISKAKGQPREPQVYTLPPSREEMTKNQVSLWCLVKGFYPSDIAVEWESNGQPENNYKTTPPVLDSDGSFFLYSKLTVDKSRWQQGNVFSCSVMHEALHNHYTQKSLSLSPGKGSGGGGSGGGGSGGGGSGGGGSGGGGSNSTCPLGPGRCCRLHTVRASLEDLGWADWVLSPREVQVTMCIGACPSQFRAANMHAQIKTRLHRLKPDTVPAPCCVPASYNPMVLIQKTDTGVSLQTYDDLLAKDCHCI
chain 2: B5 chain 2
B7: long-acting GDF15 fusion protein (dimer) FM11-3 + Fc_hole (ΔN3, G4N, D5S, H6T, S64R; linker GS(G4S)7) (Fc fusion)
chain 1: APEAAGGPSVFLFPPKPKDTLMISRTPEVTCVVVDVSHEDPEVKFNWYVDGVEVHNAKTKPREEQYASTYRVVSVLTVLHQDWLNGKEYKCKVSNKALPAPIEKTISKAKGQPREPQVYTLPPSREEMTKNQVSLWCLVKGFYPSDIAVEWESNGQPENNYKTTPPVLDSDGSFFLYSKLTVDKSRWQQGNVFSCSVMHEALHNHYTQKSLSLSPGKGSGGGGSGGGGSGGGGSGGGGSGGGGSGGGGSGGGGSNSTCPLGPGRCCRLHTVRASLEDLGWADWVLSPREVQVTMCIGACPSQFRAANMHAQIKTRLHRLKPDTVPAPCCVPASYNPMVLIQKTDTGVSLQTYDDLLAKDCHCI
chain 2: B5 chain 2
B8: long-acting GDF15 fusion protein (dimer) FM11-4 + Fc_hole (ΔN3, G4N, D5S, H6T, S64R; linker GS(EEEA)6) (Fc fusion)
chain 1: APEAAGGPSVFLFPPKPKDTLMISRTPEVTCVVVDVSHEDPEVKFNWYVDGVEVHNAKTKPREEQYASTYRVVSVLTVLHQDWLNGKEYKCKVSNKALPAPIEKTISKAKGQPREPQVYTLPPSREEMTKNQVSLWCLVKGFYPSDIAVEWESNGQPENNYKTTPPVLDSDGSFFLYSKLTVDKSRWQQGNVFSCSVMHEALHNHYTQKSLSLSPGKGSEEEAEEEAEEEAEEEAEEEAEEEANSTCPLGPGRCCRLHTVRASLEDLGWADWVLSPREVQVTMCIGACPSQFRAANMHAQIKTRLHRLKPDTVPAPCCVPASYNPMVLIQKTDTGVSLQTYDDLLAKDCHCI
chain 2: B5 chain 2
B9: long-acting GDF15 fusion protein (dimer) FM11-5 + Fc_hole (ΔN3, G4N, D5S, H6T, S64R; linker GSGGSS(PT)10) (Fc fusion)
chain 1: APEAAGGPSVFLFPPKPKDTLMISRTPEVTCVVVDVSHEDPEVKFNWYVDGVEVHNAKTKPREEQYASTYRVVSVLTVLHQDWLNGKEYKCKVSNKALPAPIEKTISKAKGQPREPQVYTLPPSREEMTKNQVSLWCLVKGFYPSDIAVEWESNGQPENNYKTTPPVLDSDGSFFLYSKLTVDKSRWQQGNVFSCSVMHEALHNHYTQKSLSLSPGKGSGGSSPTPTPTPTPTPTPTPTPTPTNSTCPLGPGRCCRLHTVRASLEDLGWADWVLSPREVQVTMCIGACPSQFRAANMHAQIKTRLHRLKPDTVPAPCCVPASYNPMVLIQKTDTGVSLQTYDDLLAKDCHCI
chain 2: B5 chain 2
B10: long-acting GDF15 fusion protein (dimer) FM11-6 + Fc_hole (ΔN3, G4N, D5S, H6T, S64R; linker GS(EAAAK)5) (Fc fusion)
chain 1: APEAAGGPSVFLFPPKPKDTLMISRTPEVTCVVVDVSHEDPEVKFNWYVDGVEVHNAKTKPREEQYASTYRVVSVLTVLHQDWLNGKEYKCKVSNKALPAPIEKTISKAKGQPREPQVYTLPPSREEMTKNQVSLWCLVKGFYPSDIAVEWESNGQPENNYKTTPPVLDSDGSFFLYSKLTVDKSRWQQGNVFSCSVMHEALHNHYTQKSLSLSPGKGSEAAAKEAAAKEAAAKEAAAKEAAAKNSTCPLGPGRCCRLHTVRASLEDLGWADWVLSPREVQVTMCIGACPSQFRAANMHAQIKTRLHRLKPDTVPAPCCVPASYNPMVLIQKTDTGVSLQTYDDLLAKDCHCI
chain 2: B5 chain 2
B11: long-acting GDF15 fusion protein (dimer) FM9-1 + Fc_hole (ΔN2, S64R; linker GS(G4S)3) (Fc fusion)
chain 1: APEAAGGPSVFLFPPKPKDTLMISRTPEVTCVVVDVSHEDPEVKFNWYVDGVEVHNAKTKPREEQYASTYRVVSVLTVLHQDWLNGKEYKCKVSNKALPAPIEKTISKAKGQPREPQVYTLPPSREEMTKNQVSLWCLVKGFYPSDIAVEWESNGQPENNYKTTPPVLDSDGSFFLYSKLTVDKSRWQQGNVFSCSVMHEALHNHYTQKSLSLSPGKGSGGGGSGGGGSGGGGSNGDHCPLGPGRCCRLHTVRASLEDLGWADWVLSPREVQVTMCIGACPSQFRAANMHAQIKTRLHRLKPDTVPAPCCVPASYNPMVLIQKTDTGVSLQTYDDLLAKDCHCI
chain 2: B5 chain 2
B12: long-acting GDF15 fusion protein (dimer) FM9-2 + Fc_hole (ΔN2, S64R; linker GS(G4S)5) (Fc fusion)
chain 1: APEAAGGPSVFLFPPKPKDTLMISRTPEVTCVVVDVSHEDPEVKFNWYVDGVEVHNAKTKPREEQYASTYRVVSVLTVLHQDWLNGKEYKCKVSNKALPAPIEKTISKAKGQPREPQVYTLPPSREEMTKNQVSLWCLVKGFYPSDIAVEWESNGQPENNYKTTPPVLDSDGSFFLYSKLTVDKSRWQQGNVFSCSVMHEALHNHYTQKSLSLSPGKGSGGGGSGGGGSGGGGSGGGGSGGGGSNGDHCPLGPGRCCRLHTVRASLEDLGWADWVLSPREVQVTMCIGACPSQFRAANMHAQIKTRLHRLKPDTVPAPCCVPASYNPMVLIQKTDTGVSLQTYDDLLAKDCHCI
chain 2: B5 chain 2
B13: long-acting GDF15 fusion protein (dimer) FM9-3 + Fc_hole (ΔN2, S64R; linker GS(G4S)7) (Fc fusion)
chain 1: APEAAGGPSVFLFPPKPKDTLMISRTPEVTCVVVDVSHEDPEVKFNWYVDGVEVHNAKTKPREEQYASTYRVVSVLTVLHQDWLNGKEYKCKVSNKALPAPIEKTISKAKGQPREPQVYTLPPSREEMTKNQVSLWCLVKGFYPSDIAVEWESNGQPENNYKTTPPVLDSDGSFFLYSKLTVDKSRWQQGNVFSCSVMHEALHNHYTQKSLSLSPGKGSGGGGSGGGGSGGGGSGGGGSGGGGSGGGGSGGGGSNGDHCPLGPGRCCRLHTVRASLEDLGWADWVLSPREVQVTMCIGACPSQFRAANMHAQIKTRLHRLKPDTVPAPCCVPASYNPMVLIQKTDTGVSLQTYDDLLAKDCHCI
chain 2: B5 chain 2
B14: long-acting GDF15 fusion protein (dimer) FM9-4 + Fc_hole (ΔN2, S64R; linker GS(EEEA)6) (Fc fusion)
chain 1: APEAAGGPSVFLFPPKPKDTLMISRTPEVTCVVVDVSHEDPEVKFNWYVDGVEVHNAKTKPREEQYASTYRVVSVLTVLHQDWLNGKEYKCKVSNKALPAPIEKTISKAKGQPREPQVYTLPPSREEMTKNQVSLWCLVKGFYPSDIAVEWESNGQPENNYKTTPPVLDSDGSFFLYSKLTVDKSRWQQGNVFSCSVMHEALHNHYTQKSLSLSPGKGSEEEAEEEAEEEAEEEAEEEAEEEANGDHCPLGPGRCCRLHTVRASLEDLGWADWVLSPREVQVTMCIGACPSQFRAANMHAQIKTRLHRLKPDTVPAPCCVPASYNPMVLIQKTDTGVSLQTYDDLLAKDCHCI
chain 2: B5 chain 2
B15: long-acting GDF15 fusion protein (dimer) FM9-5 + Fc_hole (ΔN2, S64R; linker GSGGSS(PT)10) (Fc fusion)
chain 1: APEAAGGPSVFLFPPKPKDTLMISRTPEVTCVVVDVSHEDPEVKFNWYVDGVEVHNAKTKPREEQYASTYRVVSVLTVLHQDWLNGKEYKCKVSNKALPAPIEKTISKAKGQPREPQVYTLPPSREEMTKNQVSLWCLVKGFYPSDIAVEWESNGQPENNYKTTPPVLDSDGSFFLYSKLTVDKSRWQQGNVFSCSVMHEALHNHYTQKSLSLSPGKGSGGSSPTPTPTPTPTPTPTPTPTPTNGDHCPLGPGRCCRLHTVRASLEDLGWADWVLSPREVQVTMCIGACPSQFRAANMHAQIKTRLHRLKPDTVPAPCCVPASYNPMVLIQKTDTGVSLQTYDDLLAKDCHCI
chain 2: B5 chain 2

The binders below were run against T1, GDF15 receptors GFRAL and RET, overexpressed together on HEK293 cells (UniProt Q6UXV0 19-394; P07949 29-1114, limits assumed) (assay: cell-based or functional assay).
T1 sequence (Q6UXV0 19-394 limits assumed, chain 1 of 2): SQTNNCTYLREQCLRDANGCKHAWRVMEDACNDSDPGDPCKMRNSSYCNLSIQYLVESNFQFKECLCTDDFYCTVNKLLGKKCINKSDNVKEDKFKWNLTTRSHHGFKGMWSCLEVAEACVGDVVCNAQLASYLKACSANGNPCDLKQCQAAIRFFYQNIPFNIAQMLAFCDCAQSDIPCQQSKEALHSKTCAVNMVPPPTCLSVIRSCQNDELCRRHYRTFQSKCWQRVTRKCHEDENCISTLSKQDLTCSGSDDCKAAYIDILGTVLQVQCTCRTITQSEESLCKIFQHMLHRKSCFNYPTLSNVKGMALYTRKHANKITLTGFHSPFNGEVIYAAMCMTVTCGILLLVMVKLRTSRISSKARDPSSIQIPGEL
T1 sequence (P07949 29-1114 limits assumed, chain 2 of 2): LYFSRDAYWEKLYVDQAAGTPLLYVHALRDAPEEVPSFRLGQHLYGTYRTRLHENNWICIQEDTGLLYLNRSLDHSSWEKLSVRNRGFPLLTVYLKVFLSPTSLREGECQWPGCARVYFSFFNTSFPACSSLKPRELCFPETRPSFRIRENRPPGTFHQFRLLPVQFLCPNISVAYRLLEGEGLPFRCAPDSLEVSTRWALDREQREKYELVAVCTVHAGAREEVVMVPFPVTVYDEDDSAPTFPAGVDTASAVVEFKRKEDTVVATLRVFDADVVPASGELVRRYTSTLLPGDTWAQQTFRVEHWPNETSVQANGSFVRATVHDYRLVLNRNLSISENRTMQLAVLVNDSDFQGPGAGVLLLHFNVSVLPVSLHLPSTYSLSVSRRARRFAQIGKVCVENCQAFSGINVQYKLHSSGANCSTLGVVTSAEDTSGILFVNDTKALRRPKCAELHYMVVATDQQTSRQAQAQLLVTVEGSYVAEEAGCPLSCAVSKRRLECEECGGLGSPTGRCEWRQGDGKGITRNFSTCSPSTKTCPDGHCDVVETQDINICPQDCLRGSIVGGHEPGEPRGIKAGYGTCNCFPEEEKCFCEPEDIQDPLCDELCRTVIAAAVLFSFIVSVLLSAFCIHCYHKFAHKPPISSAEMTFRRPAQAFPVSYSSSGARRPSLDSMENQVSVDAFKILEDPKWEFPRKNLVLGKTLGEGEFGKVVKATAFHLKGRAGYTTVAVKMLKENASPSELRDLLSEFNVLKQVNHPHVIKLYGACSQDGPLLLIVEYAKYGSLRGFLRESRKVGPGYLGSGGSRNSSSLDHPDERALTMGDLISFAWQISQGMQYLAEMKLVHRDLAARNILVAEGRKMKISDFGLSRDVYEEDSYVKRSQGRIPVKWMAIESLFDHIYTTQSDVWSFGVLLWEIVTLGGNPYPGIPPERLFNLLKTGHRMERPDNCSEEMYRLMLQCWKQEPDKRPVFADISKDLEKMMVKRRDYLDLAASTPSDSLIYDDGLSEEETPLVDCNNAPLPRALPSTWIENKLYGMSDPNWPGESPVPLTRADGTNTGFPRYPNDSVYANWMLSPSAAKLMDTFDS

Row | Binder | EC50 [nM] | Emax (%) [relative to FWT 100%] [%]
1 | B1 | 9.2 | 118
2 | B2 | 31.8 | 37.5
3 | B3 | 19.4 | 51.3
4 | B4 | 12.9 | 16.3

Target: T1, GDF15 receptors GFRAL and RET, …
Experiment: cell-based or functional assay
Remark: another data set of the same source

Row | Binder | EC50 [nM] | Emax (%)
5 | B5 | 9.7 | 65.6
6 | B6 | 7.7 | 79.4
7 | B7 | 7.8 | 81
8 | B8 | 45.4 | 105
9 | B9 | 5.1 | 68.2
10 | B10 | 6.8 | 80.3
11 | B11 | 9 | 97.6
12 | B12 | 9.5 | 111
13 | B13 | 9.3 | 95.6
14 | B14 | 23.6 | 128
15 | B15 | 5.3 | 100
